“And” between values parts separate entries of the source, which are not always exact repeats. Equal entries are not always repeated.
Settings: whole UniProt chain shown
[1] = Salmonella typhimurium (strain LT2 / SGSC1412 / ATCC 700720), pH 9.01, Thermal, DSC, sodium tetraborate 1 mM
[2] = Halobacterium salinarum (strain ATCC 700922 / JCM 11081 / NRC-1), pH 7, Thermal, DSC, phosphate 0.1 M

B1: Formate dehydrogenase wild type, O13437 (protein)
chain: MKIVLVLYDAGKHAADEEKLYGCTENKLGIANWLKDQGHELITTSDKEGETSELDKHIPDADIIITTPFHPAYITKERLDKAKNLKLVVVAGVGSDHIDLDYINQTGKKISVLEVTGSNVVSVAEHVVMTMLVLVRNFVPAHEQIINHDWEVAAIAKDAYDIEGKTIATIGAGRIGYRVLERLLPFNPKELLYYDYQALPKEAEEKVGARRVENIEELVAQADIVTVNAPLHAGTKGLINKELLSKFKKGAWLVNTARGAICVAEDVAAALESGQLRGYGGDVWFPQPAPKDHPWRDMRNKYGAGNAMTPHYSGTTLDAQTRYAEGTKNILESFFTGKFDYRPQDIILLNGEYVTKAYGKHDKK
Tm (Candida boidinii): 59 °C

B2: FMN-dependent NADH:quinone oxidoreductase 1 wild type, Q88IY3 (protein)
chain: MKLLHIDSSILGDNSASRQLSREVVEAWKAADPSVEVVYRDLAADAIAHFSAATLVAAGTPEDVRDAAQAFEAKLSAETLEEFLAADAVVIGAPMYNFTVPTQLKAWIDRVAVAGKTFRYTEAGPQGLCGNKKVVLVSTAGGLHAGQPTGAGHEDFLKVFLGFIGITDLEIVRAHGLAYGPEQRSQAIDAAQAQIASELFAAA
Tm (Pseudomonas putida (strain ATCC 47054 / DSM 6125 / CFBP 8728 / NCIMB 11950 / KT2440), Fluorescence spectroscopy): 47 °C

B3: wild type, Q72LK2 (protein)
chain: MEATLPVLDAKTAALKRRSIRRYRKDPVPEGLLREILEAALRAPSAWNLQPWRIVVVRDPATKRALREAAFGQAHVEEAPVVLVLYADLEDALAHLDEVIHPGVQGERREAQKQAIQRAFAAMGQEARKAWASGQSYILLGYLLLLLEAYGLGSVPMLGFDPERVKAILGLPSHAAIPALVALGYPAEEGYPSHRLPLERVVLWR
Tm (Thermus thermophilus (strain ATCC BAA-163 / DSM 7039 / HB27)): 30 °C

B4: Tryptophan synthase alpha chain wild type, P00929 (protein)
chain: MERYENLFAQLNDRREGAFVPFVTLGDPGIEQSLKIIDTLIDAGADALELGVPFSDPLADGPTIQNANLRAFAAGVTPAQCFEMLALIREKHPTIPIGLLMYANLVFNNGIDAFYARCEQVGVDSVLVADVPVEESAPFRQAALRHNIAPIFICPPNADDDLLRQVASYGRGYTYLLSRSGVTGAENRGALPLHHLIEKLKEYHAAPALQGFGISSPEQVSAAVRAGAAGAISGSAIVKIIEKNLASPKQMLAELRSFVSAMKAASRA
Tm [1]: 46.2 °C
unfolding enthalpy (van 't Hoff) [1]: 3.68 kcal/mol

B5: Alpha-lactalbumin wild type, P00711 (protein)
chain: MMSFVSLLLVGILFHATQAEQLTKCEVFRELKDLKGYGGVSLPEWVCTTFHTSGYDTQAIVQNNDSTEYGLFQINNKIWCKDDQNPHSSNICNISCDKFLDDDLTDDIMCVKKILDKVGINYWLAHKALCSEKLDQWLCEKL
Tm (Bos taurus, pH 6, Thermal, DSC, Unknown): 59 °C

B6: Bacteriorhodopsin wild type, P02945 (protein)
chain: MLELLPTAVEGVSQAQITGRPEWIWLALGTALMGLGTLYFLVKGMGVSDPDAKKFYAITTLVPAIAFTMYLSMLLGYGLTMVPFGGEQNPIYWARYADWLFTTPLLLLDLALLVDADQGTILALVGADGIMIGTGLVGALTKVYSYRFVWWAISTAAMLYILYVLFFGFTSKAESMRPEVASTFKVLRNVTVVLWSAYPVVWLIGSEGAGIVPLNIETLLFMVLDVSAKVGFGLILLRSRAIFGEAEAPEPSAGDGAAATSD
unfolding enthalpy (calorimetric) [2]: 50 kcal/mol and 86 kcal/mol and 104 kcal/mol
unfolding enthalpy (van 't Hoff) [2]: 71 kcal/mol and 125 kcal/mol and 155 kcal/mol
